Assay results as given in US12599645B2, “Antibodies which bind to lysophosphatidic acid receptor 1 (LPAR1)” (DJS ANTIBODIES LTD, priority 2021, dated 2026).
Numbering of substitutions follows the chain as printed. Names and notes keep the numbering of the source.

B1: Antibody 12: LCDR2 mutation T56D; VH SEQ ID NO: 36, VL SEQ ID NO: 38 (antibody, V domains shown)
VH: QVQLVQSGSELKKPGASVKVSCKASGYTFTSSGISWVRQAPGQGLEWMGEILPRSGYTNYNQGFTGRFVFSADKSVSTAYLQISSLKAEDTAVYYCARDFKGGRYAMDYWGQGTTVTVSS
VL: SIQMTQSPSSLSASVGDRVTITCQASQSVRYNVAWYQQKPGKAPKLLIYYASNRYDGVPSRFSGSGSGTDFTFTISSLQPEDIATYFCQHHYSSPLTFGGGTKLEIK
B2: Antibody 17: Optimised antibody; VH SEQ ID NO: 102, VL SEQ ID NO: 99 (antibody, V domains shown)
VH: B1 VH with L52Q, F100K, K101G, G102P, G103A, A106T
VL: B1 VL with D56E

Experiments:
diabetic nephropathy = details: STZ-induced (early disease model), 8 weeks, Lee J H et al. (2019); cited from earlier work
[1] = design: species or system Sprague Dawley rats; details: rat, in vivo, iv, 3 mg/kg
Procedure: The rat pharmacokinetics study was carried out in male Sprague Dawley rats (275-325 g). Rats received an IV slow bolus (3 mg/kg) of test antibody. Blood samples were taken at the following time-points: pre-dose, 2 min, 1 hour, 3 hours, 6 hours, 24 hours, 48 hours, 96 hours, 7 days, 14 days and 21 days after dosing. For each animal and for each blood sampling, 200 μL venous blood was obtained from the sublingual vein under isoflurane anaesthesia in K2EDTA vials. The blood samples were gently mixed, placed immediately on crushed ice and centrifuged within 30 min of sampling at approximately 1500×g for approximately 10 min at approximately 4° C. For each blood sample, the resulting plasma was separated into 2 aliquots of 30 μL and transferred, using disposable plastic material, into polypropylene tubes with conical bottom and stored at −80° C. until analysis by capture ELISA. Plates were coated overnight with 1 μg/mL capture IgG before washing and blocking with 3% (w/v) milk the next morning for 2 hours. […] Absorbance was measured on a plate reader at 450 nm. Antibody concentrations were calculated using interpolation off a standard curve constructed for each individual test IgG in Prism 5 (GraphPad Software, CA, USA). Interpolated data was analysed using Phoenix WinNonlin® version 8.1 (Certara USA, Inc., Princeton, NJ) to extract relevant PK parameters. […]

Irrelevant GPCR = assay: Transient-transfection CIFAT, irrelevant GPCR control (fixed and live cells); format: binding; details: cells expressing irrelevant GPCR
Procedure: (§1) Anti-LPAR1 antibodies of the invention were tested alongside commercially available anti-LPAR1 antibodies in the transient-transfection CIFAT assay for live cells (method 1.11) and in the transient-transfection CIFAT assay for fixed cells (method 1.11).
The results are shown in FIGS. 11 and 12, wherein the scale bar represents 100 μm.

LPAR1 [2] = biological target: T1, LPAR1 (Homo sapiens, UniProt Q92633); assay: LPAR1 binding affinity during discovery and affinity maturation, method not stated; design: expressed in transfected cells; details: stated in words
T1 sequence (Q92633 whole entry): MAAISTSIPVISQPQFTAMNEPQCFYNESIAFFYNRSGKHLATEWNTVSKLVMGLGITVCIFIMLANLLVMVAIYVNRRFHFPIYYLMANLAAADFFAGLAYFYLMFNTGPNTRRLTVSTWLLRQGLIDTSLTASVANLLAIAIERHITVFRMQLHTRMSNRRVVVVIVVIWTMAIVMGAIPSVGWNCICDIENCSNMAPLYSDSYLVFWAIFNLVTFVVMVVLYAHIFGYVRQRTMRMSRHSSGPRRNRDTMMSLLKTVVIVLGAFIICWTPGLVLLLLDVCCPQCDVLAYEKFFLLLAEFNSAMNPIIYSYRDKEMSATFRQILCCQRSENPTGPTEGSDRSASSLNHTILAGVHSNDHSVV

LPAR1 [3] = biological target: T1, LPAR1; assay: BRET assay (G protein activation and βArrestin 2 biosensors); format: cell-based; design: expressed in transfected cells; host or cells: HEK293 (transient, PEI); details: G13 biosensor
Procedure: Using polyethylenimine (PEI) transfection agent at a 3:1 ratio, HEK293 cells were co-transfected in suspension with hLPAR1 and one of the following biosensors: G protein activation sensors (Gαi2, Gα13, and Gαq) and the βArrestin 2-PM recruitment biosensor (+GRK2). Cells were directly seeded in 96-well plates immediately following transfection at a density of 35,000 cells/well. 48 hours post-transfection, BRET experiments were performed in both agonist and allosteric/antagonist mode. Using a plate washer, culture medium was aspirated and replaced with 30 μl of Hank's Balanced Salt Solution buffer (HBSS). Plates were equilibrated at room temperature for 60 minutes. For agonist testing, serial dilutions of the antibodies were performed in PBS and then added to each well. Antibodies were assayed at 12 concentrations in technical duplicates. Small molecules were added to each relevant well. Small molecules were assayed at 22 concentrations with each biosensor. Cells were then incubated with the antibodies or small molecules at room temperature for 60 or 10 minutes, respectively. 10 μl of 10 μM e-Coelenterazine Prolume Purple (Nanolight) was then added to each well. Cells were incubated at room temperature for an additional 10 minutes. BRET readings were then collected with a 0.4 sec integration time on a plate reader (filters: 400 nm/70 nm, 515 nm/20 nm). For allosteric testing (after agonist testing), an EC75 of the endogenous ligand (oleoyl-LPA) was added to each well already containing antibody or small molecule. Cells were incubated at room temperature for an additional 10 minutes. BRET readings were then collected with a 0.4 sec integration time on a plate reader (filters: 400 nm/70 nm, 515 nm/20 nm). BRET signals were determined by calculating the ratio of light emitted by GFP-acceptor (515 nm) over light emitted by luciferase-donor (400 nm). All BRET ratios were standardized with pre-established BRET values for positive and negative controls. The standardized BRET ratio is referred to as universal BRET (uBRET). Resulting dose-response curves were fitted using the three- or four-parameter logistic non-linear regression model in GraphPad Prism 9.
The inhibition characteristics of Antibody 12 were investigated by Bioluminescence Resonance Energy Transfer (BRET, method 1.15) and compared to a small molecule LPAR1 inhibitor of the prior art (BMS-986020), see FIG. 13. The upper lines are values recorded with LPA present and the lower lines are values recorded with LPA not present. […] This can only happen if the ligand (LPA) is also interacting with the receptor at the same time to enable some signalling. […]

LPAR1 [4] = biological target: T1, LPAR1; assay: Transient-transfection CIFAT, live cells; format: binding; design: HA; expressed in transfected cells; host or cells: CHO-K1 (transient, PEI); details: 5 μg/mL or 20 μg/mL
Procedure: CHO-K1 cells are seeded in multi well plates at 20,000 cells per 200 μL full growth medium and incubated for 24 hours at 37° C. In a sterile tube, 0.0309 uL/well PEI is diluted into 10 uL/well transfection medium (DMEM supplemented with 2 mM L-glutamine and Penicillin-Streptomycin). The diluted PEI is added to 100 ng/well DNA, before mixing immediately and incubating the mixture for 10 minutes at room temperature. 200 μL/well full growth medium is added to the PEI-DNA mixture, then medium in wells is taken off and 200 ul full growth medium/PEI/DNA mixture is added in the wells of the adherent cell plate. The plate is incubated for 24 hours at 37° C. The medium is discarded and replaced with 200 μL full growth medium. The plate is incubated for 24 hours at 37° C. Medium is removed from the wells and the cells incubated with primary antibody at varying concentrations for 75 minutes at 37° C. After washing and cell fixation with 4% PFA, the binding of the antibodies is detected using a goat anti-human detection antibody, incubated for 1 hour at room temperature. Fluorescence at 488 nm is measured.
CHO-K1 cells were seeded in clear 96-well plates at 20,000 cells per 200 μL full growth medium and incubated for 24 hours at 37° C. The following day, in a sterile tube, 0.0309 uL/well PEI (Generon, MW 160,000) was diluted into 10 uL/well transfection medium (DMEM supplemented with 2 mM L-glutamine and Penicillin-Streptomycin). The diluted PEI was added to 100 ng/well DNA encoding the target protein (human LPAR1 (SEQ ID NO: 62) unless otherwise stated), before vortexing immediately and incubating the mixture for 10 minutes at room temperature. 200 μL/well full growth medium was added to the PEI-DNA mixture, then medium in wells was taken off and 200 ul full growth medium/PEI/DNA mixture was added in the wells of the adherent cell plate. The plate was incubated for 24 hours at 37° C. The next day, the medium was discarded and replaced with 200 μL full growth medium. The plate was incubated for 24 hours at 37° C. The following day, medium was removed from the wells and the cells incubated with primary antibody at varying concentrations for 75 minutes at 37° C. After washing and cell fixation with 4% PFA, the binding of the antibodies was detected using a goat anti-human Alexa Fluor 488 detection antibody (Invitrogen), incubated for 1 hour at room temperature. Fluorescence at 488 nm was measured using a BMG LABTECH ClarioStar plate reader and microscopy images were taken at 10× magnification.
as §1

LPAR1 [5] = biological target: T1, LPAR1; assay: Transient-transfection CIFAT, fixed/permeabilised cells; format: binding; design: HA; expressed in transfected cells; host or cells: CHO-K1 (transient, PEI); details: 5 μg/mL
[6] = Dose range-finding toxicity study, liver histopathology; format: in vivo; details: cynomolgus
Procedure: A dose range-finding study was carried out to determine the potential toxicity of Antibody 17 when given by the intravenous (infusion) route to cynomolgus monkeys. The test item, Antibody 17, was administered to 8 animals via intravenous infusion (30 minutes) on Day 1 (Group 1) or on Days 1, 8 and 15 (Groups 2 to 4). Animals were split by sex, allocated into 4 groups and dosed with Antibody 17 at 10, 33 or 100 mg/kg/day.
A complete gross pathological examination, organ weight recording and microscopic evaluation were performed on the six animals that were given 3 doses of Antibody 17 (Groups 2 to 4) two days after the third dose.

[7] = tested on: renal fibrosis after UUO surgery; assay: Unilateral ureteral obstruction (UUO) efficacy model of renal fibrosis; format: in vivo, Hartley guinea pigs; details: Study 2
Procedure: Unilateral ureteral obstruction (UUO) is a well-characterized disease model for renal fibrosis. The UUO model encompasses key pathophysiological features of chronic kidney disease; tubular necrosis and inflammatory cell infiltration within a relatively short period.
Two unilateral ureteral obstruction (UUO) model efficacy studies were carried out in six-week old female Hartley guinea pigs. On Day 0, UUO surgery was performed. BMS-986020 was administered orally at a dose level of 30 mg/kg in a volume of 5 mL/kg twice daily at from Day −1 to 9. Isotype control and anti-LPAR1 antibody was intraperitoneally administered at a dose level of 6 mg/kg (low) or 20 mg/kg (high) in a volume of 10 mL/kg at Day −1, Day 0, Day 3 and Day 6. The viability, clinical signs, behaviour and individual body weight was monitored daily.
The animals were sacrificed at Day 10. The ligated left kidney and right kidney weight were measured at sacrifice.
Hydroxyproline is an amino acid, making up around 14% of collagen and acts as an important indicator of the severity of fibrosis. To quantify kidney hydroxyproline content, frozen posterior right section of left kidney samples were processed by an alkaline-acid hydrolysis method. AC buffer (2.2M acetic acid/0.48M citric acid) was added to the samples, followed by centrifugation to collect the supernatant. A standard curve of hydroxyproline was constructed with serial dilutions of trans-4-hydroxy-L-proline (Sigma-Aldrich, USA) starting at 16 μg/mL. The prepared samples and standards were mixed with chloramine T solution (Nacalai Tesque Inc., Japan) and incubated for 25 minutes at room temperature. The samples were then mixed with Ehrlich's solution and heated at 65° C. for 20 minutes to develop the colour. After samples were cooled on ice and centrifuged to remove precipitates, the optical density of each supernatant was measured at 560 nm. The concentrations of hydroxyproline were calculated from the hydroxyproline standard curve. Protein concentrations of kidney samples were determined using a BCA protein assay kit (Thermo Fisher Scientific, USA) and used to normalize the calculated hydroxyproline values. Kidney hydroxyproline contents were expressed as μg per mg protein.
The left kidney was fixed in Bouin's solution and embedded in paraffin. For PAS staining, sections were cut from paraffin blocks and stained with Schiff's reagent (FUJIFILM Wako pure chemical corporation, Japan) according to the manufacturer's instructions. To visualize collagen deposition, kidney sections were stained using picro-Sirius red solution (FUJIFILM Wako pure chemical corporation). For quantification of interstitial and medulla fibrosis area, bright field images in the corticomedullary region were captured using a digital camera (DFC295) at 200-fold magnification, and the positive areas in 5 fields/section were measured using ImageJ software (National Institute of Health, USA).

[8] = IV infusion, 10, 33 or 100 mg/kg/day

| Molecule | 24 h albuminuria vs untreated controls, reduction (diabetic nephropathy) | mean Cmax [1] | Irrelevant GPCR cell staining (Irrelevant GPCR) | binding affinity for LPAR1 (LPAR1 [2]) | mode of inhibition (LPAR1 [3]) | inhibition with LPA present compared to the system where LPA is absent (LPAR1 [3]; even at high concentrations) | LPAR1 live cell staining (LPAR1 [4]) | LPAR1 fixed cell staining (LPAR1 [5]) | histopathology findings ([6]; 3 doses (Days 1, 8 and 15), two days after the third dose) | adverse effects throughout the study [6, 8] | tolerability at the injection sites [6, 8] | unscheduled deaths [6, 8] | histological picrosirius staining [7] | kidney hydroxyproline ([7]; BMS-986020 30 mg/kg oral vs vehicle, antibody 20 mg/kg (high) i.p. vs isotype antibody) |
| --- | --- | --- | --- | --- | --- | --- | --- | --- | --- | --- | --- | --- | --- | --- |
| Cc1noc(-c2ccc(-c3ccc(CC(=O)O)cc3)cc2)c1NC(=O)O[C@H](C)c1ccccc1 [AM095] | ~30% reduction | – | – | – | – | – | – | – | – | – | – | – | – | – |
| B1 | – | 217.5 µg/mL | Irrelevant GPCR-No significant cell staining | minimal effect on affinity | acting allosterically | does not deliver equivalent inhibition | LPAR1-Significant fixed and live cell staining | LPAR1-Significant fixed and live cell staining | – | – | – | – | – | – |
| B2 | – | 143.8 µg/mL | – | – | – | – | – | – | no adverse findings | No adverse effects | well tolerated | no unscheduled deaths | No observable difference | significant reduction in hydroxyproline |
